Biological target: Prunus persica WEEP protein (PpeWEEP), 6xHis-MBP-PpeWEEP-StrepTagII fusion protein (Prunus persica (peach))
Experiment: SEC

## Prunus persica WEEP protein (PpeWEEP), 6xHis-MBP-PpeWEEP-StrepTagII fusion protein (natural protein)
  stoichiometry N: 8.7 mer

Reference: publication PMC10245973
